Experimental data from publication PMC10397247.

Legend:
4H1257-bA = target: T1, 4H1257-bA; assay: two-hybrid library CCNG1;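 note: natural log of median RNA to DNA barcode read ratio; higher means stronger binding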
T1 chain: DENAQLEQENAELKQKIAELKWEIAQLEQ

4H331-bA = target: T2, 4H331-bA; assay: two-hybrid library CCNG1;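 note: natural log of median RNA to DNA barcode read ratio; higher means stronger binding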
T2 chain: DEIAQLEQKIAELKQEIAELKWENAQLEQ

4H883-bA = target: T3, 4H883-bA; assay: two-hybrid library CCNG1;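 note: natural log of median RNA to DNA barcode read ratio; higher means stronger binding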
T3 chain: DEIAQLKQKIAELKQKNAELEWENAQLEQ

4H918-bA = target: T4, 4H918-bA; assay: two-hybrid library CCNG1;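 note: natural log of median RNA to DNA barcode read ratio; higher means stronger binding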
T4 chain: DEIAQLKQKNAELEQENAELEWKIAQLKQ

4H2576-bA = target: T5, 4H2576-bA; assay: two-hybrid library CCNG1;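 note: natural log of median RNA to DNA barcode read ratio; higher means stronger binding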
T5 chain: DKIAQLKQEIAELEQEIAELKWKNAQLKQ

4H1828-bA = target: T6, 4H1828-bA; assay: two-hybrid library CCNG1;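 note: natural log of median RNA to DNA barcode read ratio; higher means stronger binding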
T6 chain: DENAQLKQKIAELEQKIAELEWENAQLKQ

4H3427-bA = target: T7, 4H3427-bA; assay: two-hybrid library CCNG1
T7 chain: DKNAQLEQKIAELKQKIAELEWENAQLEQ

4H3354-bA = target: T8, 4H3354-bA; assay: two-hybrid library CCNG1
T8 chain: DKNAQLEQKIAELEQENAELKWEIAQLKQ

4H717-bA = target: T9, 4H717-bA; assay: two-hybrid library CCNG1
T9 chain: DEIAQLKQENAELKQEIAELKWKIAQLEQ

4H953-bA = target: T10, 4H953-bA; assay: two-hybrid library CCNG1
T10 chain: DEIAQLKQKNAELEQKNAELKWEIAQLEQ

4H338-bA = target: T11, 4H338-bA; assay: two-hybrid library CCNG1
T11 chain: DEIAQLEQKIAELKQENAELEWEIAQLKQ

4H2442-bA = target: T12, 4H2442-bA; assay: two-hybrid library CCNG1
T12 chain: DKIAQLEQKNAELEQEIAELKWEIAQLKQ

4H687-bA = target: T13, 4H687-bA; assay: two-hybrid library CCNG1
T13 chain: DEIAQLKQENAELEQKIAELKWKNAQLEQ

4H967-bA = target: T14, 4H967-bA; assay: two-hybrid library CCNG1
T14 chain: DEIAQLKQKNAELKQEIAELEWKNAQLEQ

4H454-bA = target: T15, 4H454-bA; assay: two-hybrid library CCNG1
T15 chain: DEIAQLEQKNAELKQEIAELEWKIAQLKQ

4H3112-bA = target: T16, 4H3112-bA; assay: two-hybrid library CCNG1
T16 chain: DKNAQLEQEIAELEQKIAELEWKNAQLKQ

4H607-bA = target: T17, 4H607-bA; assay: two-hybrid library CCNG1
T17 chain: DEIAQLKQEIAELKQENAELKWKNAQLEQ

4H908-bA = target: T18, 4H908-bA; assay: two-hybrid library CCNG1
T18 chain: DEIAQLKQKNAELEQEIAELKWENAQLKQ

4H3185-bA = target: T19, 4H3185-bA; assay: two-hybrid library CCNG1
T19 chain: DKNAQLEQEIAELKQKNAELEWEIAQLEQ

4H953-bN = target: T20, 4H953-bN; assay: two-hybrid library CCNG1
T20 chain: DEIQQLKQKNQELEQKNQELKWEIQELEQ

4H754-bA = target: T21, 4H754-bA; assay: two-hybrid library CCNG1
T21 chain: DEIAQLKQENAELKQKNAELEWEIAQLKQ

4H2618-bA = target: T22, 4H2618-bA; assay: two-hybrid library CCNG1
T22 chain: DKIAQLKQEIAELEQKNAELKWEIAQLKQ

4H2667-bA = target: T23, 4H2667-bA; assay: two-hybrid library CCNG1
T23 chain: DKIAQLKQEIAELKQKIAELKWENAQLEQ

4H72-bA = target: T24, 4H72-bA; assay: two-hybrid library CCNG1
T24 chain: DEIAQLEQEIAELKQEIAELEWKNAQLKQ

4H1446-bA = target: T25, 4H1446-bA; assay: two-hybrid library CCNG1
T25 chain: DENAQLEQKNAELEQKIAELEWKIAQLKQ

4H3782-bA = target: T26, 4H3782-bA; assay: two-hybrid library CCNG1
T26 chain: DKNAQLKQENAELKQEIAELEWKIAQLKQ

4H3855-bA = target: T27, 4H3855-bA; assay: two-hybrid library CCNG1
T27 chain: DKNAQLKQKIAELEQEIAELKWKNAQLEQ

4H797-bA = target: T28, 4H797-bA; assay: two-hybrid library CCNG1
T28 chain: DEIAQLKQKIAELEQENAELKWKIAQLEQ

O2-bA = target: T29, O2-bA; assay: two-hybrid library CCNG1
T29 chain: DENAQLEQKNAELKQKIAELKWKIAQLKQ

4H568-bA = target: T30, 4H568-bA; assay: two-hybrid library CCNG1
T30 chain: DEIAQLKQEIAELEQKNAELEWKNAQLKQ

4H2729-bA = target: T31, 4H2729-bA; assay: two-hybrid library CCNG1
T31 chain: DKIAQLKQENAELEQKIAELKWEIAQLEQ

4H1845-bA = target: T32, 4H1845-bA; assay: two-hybrid library CCNG1
T32 chain: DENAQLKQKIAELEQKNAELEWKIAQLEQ

4H4001-bA = target: T33, 4H4001-bA; assay: two-hybrid library CCNG1
T33 chain: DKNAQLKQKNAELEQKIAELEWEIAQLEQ

4H3922-AA = target: T34, 4H3922-AA; assay: two-hybrid library CCmax; conditions: mean of both orientations
T34 chain: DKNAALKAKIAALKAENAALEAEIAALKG

4H2513-AA = target: T35, 4H2513-AA; assay: two-hybrid library CCmax; conditions: mean of both orientations
T35 chain: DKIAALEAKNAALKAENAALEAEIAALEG

4H4033-AA = target: T36, 4H4033-AA; assay: two-hybrid library CCmax; conditions: mean of both orientations
T36 chain: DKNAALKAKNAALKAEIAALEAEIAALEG

4H1103-AA = target: T37, 4H1103-AA; assay: two-hybrid library CCmax; conditions: mean of both orientations
T37 chain: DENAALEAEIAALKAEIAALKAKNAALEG

4H1017-AA = target: T38, 4H1017-AA; assay: two-hybrid library CCmax
T38 chain: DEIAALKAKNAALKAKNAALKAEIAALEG

4H481-AA = target: T39, 4H481-AA; assay: two-hybrid library CCmax; conditions: mean of both orientations
T39 chain: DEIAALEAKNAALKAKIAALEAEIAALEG

4H2935-AA = target: T40, 4H2935-AA; assay: two-hybrid library CCmax; conditions: mean of both orientations
T40 chain: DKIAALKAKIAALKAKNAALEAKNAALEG

4H2608-AA = target: T41, 4H2608-AA; assay: two-hybrid library CCmax; conditions: mean of both orientations
T41 chain: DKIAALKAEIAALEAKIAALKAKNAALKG

4H3605-AA = target: T42, 4H3605-AA; assay: two-hybrid library CCmax; conditions: mean of both orientations
T42 chain: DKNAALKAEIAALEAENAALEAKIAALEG

4H2536-AA = target: T43, 4H2536-AA; assay: two-hybrid library CCmax; conditions: mean of both orientations
T43 chain: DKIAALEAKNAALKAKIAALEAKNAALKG

4H3625-AA = target: T44, 4H3625-AA; assay: two-hybrid library CCmax; conditions: mean of both orientations
T44 chain: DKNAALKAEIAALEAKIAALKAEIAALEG

4H1082-AA = target: T45, 4H1082-AA; assay: two-hybrid library CCmax
T45 chain: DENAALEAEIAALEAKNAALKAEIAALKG

4H2614-AA = target: T46, 4H2614-AA; assay: two-hybrid library CCmax; conditions: mean of both orientations
T46 chain: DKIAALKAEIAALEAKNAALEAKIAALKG

4H3664-AA = target: T47, 4H3664-AA; assay: two-hybrid library CCmax; conditions: mean of both orientations
T47 chain: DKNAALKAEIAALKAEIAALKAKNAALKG

4H2726-AA = target: T48, 4H2726-AA; assay: two-hybrid library CCmax; conditions: mean of both orientations
T48 chain: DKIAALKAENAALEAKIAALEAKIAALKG

4H662-AA = target: T49, 4H662-AA; assay: two-hybrid library CCmax; conditions: mean of both orientations
T49 chain: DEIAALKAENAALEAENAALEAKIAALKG

4H2238-AA = target: T50, 4H2238-AA; assay: two-hybrid library CCmax; conditions: mean of both orientations
T50 chain: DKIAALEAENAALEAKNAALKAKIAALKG

4H55-AA = target: T51, 4H55-AA; assay: two-hybrid library CCmax; conditions: mean of both orientations
T51 chain: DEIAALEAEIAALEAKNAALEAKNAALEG

4H369-AA = target: T52, 4H369-AA; assay: two-hybrid library CCmax; conditions: mean of both orientations
T52 chain: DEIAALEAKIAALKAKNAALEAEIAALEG

4H1405-AA = target: T53, 4H1405-AA; assay: two-hybrid library CCmax; conditions: mean of both orientations
T53 chain: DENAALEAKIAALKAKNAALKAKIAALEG

4H2211-AA = target: T54, 4H2211-AA; assay: two-hybrid library CCmax; conditions: mean of both orientations
T54 chain: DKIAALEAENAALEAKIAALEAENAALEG

4H1350-AA = target: T55, 4H1350-AA; assay: two-hybrid library CCmax; conditions: mean of both orientations
T55 chain: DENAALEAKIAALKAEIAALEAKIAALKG

4H1198-AA = target: T56, 4H1198-AA; assay: two-hybrid library CCmax; conditions: mean of both orientations
T56 chain: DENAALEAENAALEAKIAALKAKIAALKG

4H327-AA = target: T57, 4H327-AA; assay: two-hybrid library CCmax; conditions: mean of both orientations
T57 chain: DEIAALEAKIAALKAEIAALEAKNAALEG

P4SC2 [1] = target: T58, P4SC2; assay: two-hybrid library CCNG1
T58 chain: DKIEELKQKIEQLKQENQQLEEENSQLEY

P4SC2 [2] = target: T58, P4SC2; assay: two-hybrid library CCmax; conditions: mean of both orientations
Core_IIIN-es_KKKK = target: T59, Core_IIIN-es_KKKK; assay: two-hybrid library CCmax; conditions: mean of both orientations
T59 chain: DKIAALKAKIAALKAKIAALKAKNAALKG

Core_INII-es_KEEK = target: T60, Core_INII-es_KEEK; assay: two-hybrid library CCmax; conditions: mean of both orientations
T60 chain: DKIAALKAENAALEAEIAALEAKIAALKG

DENAQLEQENAELKQKIAELKWEIAQLEQ [4H1257-bA]
interaction score (4H1257-bA): -0.0608
interaction score (4H331-bA): -0.712
interaction score (4H883-bA): -1.18
interaction score (4H918-bA): -0.431
interaction score (4H2576-bA): 0.908
interaction score (4H1828-bA): -0.782
interaction score (4H3427-bA): -0.869
interaction score (4H3354-bA): -0.884
interaction score (4H717-bA): -0.0683
interaction score (4H953-bA): -1.53
interaction score (4H338-bA): -1.24
interaction score (4H2442-bA): -0.983
interaction score (4H687-bA): -0.935
interaction score (4H967-bA): -1.12
interaction score (4H454-bA): 1.77
interaction score (4H3112-bA): -0.693
interaction score (4H607-bA): -1.24
interaction score (4H908-bA): -1.38
interaction score (4H3185-bA): -1.37
interaction score (4H953-bN): -2.6
interaction score (4H754-bA): -1.15
interaction score (4H2618-bA): -0.882
interaction score (4H2667-bA): -0.847
interaction score (4H72-bA): -1.15
interaction score (4H1446-bA): -0.55
interaction score (4H3782-bA): 2.01
interaction score (4H3855-bA): -0.705
interaction score (4H797-bA): -0.933
interaction score (O2-bA): -1.33
interaction score (4H568-bA): -1.75
interaction score (4H2729-bA): -0.154
interaction score (4H1845-bA): -0.799
interaction score (4H4001-bA): -0.102

DEIAALKAKNAALKAKNAALKAEIAALEG [4H1017-AA]
interaction score (4H3922-AA): -0.887
interaction score (4H2513-AA): -1.22
interaction score (4H4033-AA): -2.3
interaction score (4H1103-AA): -1.61
interaction score (4H1017-AA): -1.79
interaction score (4H481-AA): -1.63
interaction score (4H2935-AA): -3.83
interaction score (4H2608-AA): -1.64
interaction score (4H3605-AA): 0.203
interaction score (4H2536-AA): -1.48
interaction score (4H3625-AA): -1.94
interaction score (4H1082-AA): -2.19
interaction score (4H2614-AA): 0.0732
interaction score (4H3664-AA): -1.53
interaction score (4H2726-AA): 0.98
interaction score (4H662-AA): 2.48
interaction score (4H2238-AA): 1.64
interaction score (4H55-AA): -1.6
interaction score (4H369-AA): -1.44
interaction score (4H1405-AA): -1.79
interaction score (4H2211-AA): -1.35
interaction score (4H1350-AA): -1.39
interaction score (4H1198-AA): 0.565
interaction score (4H327-AA): -1.46

DEIQQLEEEIRQLEQKNSQLKEKNQQLKY [P3SC2]
interaction score (P4SC2 [1]): 1.12
interaction score (P4SC2 [2]): 0.206

DEIAALEAEIAALEAEIAALEAENAALEG [Core_IIIN-es_EEEE]
interaction score (Core_IIIN-es_KKKK): 1.39

DEIAALEAKNAALKAKIAALKAEIAALEG [Core_INII-es_EKKE]
interaction score (Core_INII-es_KEEK): 2.32
